Data taken from US5741689A, “Methods to inhibit serine kinase activity and to alter intersubunit binding activity of phosphatidylinositol 3-kinase, and serine kinase active sequence of the same” (Ludwig Institute for Cancer Research, priority 1994, dated 1998).

Columns and labels:
[1] = biological target: p85α subunit of PI3-kinase (bovine, full length, recombinant) (bovine) (UniProt P23727)
[2] = biological target: p110 subunit of PI3-kinase (bovine, wild type, recombinant) (bovine) (UniProt P32871); experiment: GST fusion on glutathione-sepharose, p110 Sf9 lysate, bound PI3-kinase activity
[3] = biological target: T1, PI3-kinase p85α/p110 complex (wild type, recombinant, expressed in Sf9 cells) (Bos taurus, UniProt P32871); experiment: in vitro PI3-kinase assay on anti-p110 immunoprecipitates, p85α/p110 complex; assay type: biochemical, bovine
T1 construct: made in house; host or cells: Sf9 insect cells (baculovirus co-infection)
T1 sequence (P32871 whole entry): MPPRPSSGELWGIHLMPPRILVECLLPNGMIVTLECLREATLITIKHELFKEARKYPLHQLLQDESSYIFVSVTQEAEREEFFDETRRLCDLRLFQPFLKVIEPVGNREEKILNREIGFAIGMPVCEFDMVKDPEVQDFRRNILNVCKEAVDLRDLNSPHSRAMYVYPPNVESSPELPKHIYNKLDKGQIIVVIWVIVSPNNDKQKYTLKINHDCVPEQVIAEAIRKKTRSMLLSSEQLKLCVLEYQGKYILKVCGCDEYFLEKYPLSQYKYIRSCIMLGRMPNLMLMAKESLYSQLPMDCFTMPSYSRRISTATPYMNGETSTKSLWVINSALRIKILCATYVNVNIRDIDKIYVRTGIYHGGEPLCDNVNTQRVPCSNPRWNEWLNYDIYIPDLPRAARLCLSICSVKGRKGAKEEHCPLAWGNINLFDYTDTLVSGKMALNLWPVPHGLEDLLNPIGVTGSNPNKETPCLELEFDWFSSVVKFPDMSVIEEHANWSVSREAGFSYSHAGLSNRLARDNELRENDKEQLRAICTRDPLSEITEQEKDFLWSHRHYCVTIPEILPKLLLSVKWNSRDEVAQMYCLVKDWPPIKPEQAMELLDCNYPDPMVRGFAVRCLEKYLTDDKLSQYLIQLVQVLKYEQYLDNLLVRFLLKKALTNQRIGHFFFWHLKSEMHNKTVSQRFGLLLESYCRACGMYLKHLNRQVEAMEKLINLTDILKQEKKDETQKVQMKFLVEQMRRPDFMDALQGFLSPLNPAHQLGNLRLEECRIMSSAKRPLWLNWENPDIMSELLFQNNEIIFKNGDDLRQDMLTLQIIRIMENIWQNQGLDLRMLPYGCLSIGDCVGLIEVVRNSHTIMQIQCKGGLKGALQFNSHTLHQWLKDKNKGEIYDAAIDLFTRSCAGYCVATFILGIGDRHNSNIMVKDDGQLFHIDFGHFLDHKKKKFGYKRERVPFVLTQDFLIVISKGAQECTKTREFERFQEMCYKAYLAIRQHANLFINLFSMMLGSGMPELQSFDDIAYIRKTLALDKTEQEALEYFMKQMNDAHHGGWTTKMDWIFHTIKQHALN
T1 sequence (P23727 whole entry partner): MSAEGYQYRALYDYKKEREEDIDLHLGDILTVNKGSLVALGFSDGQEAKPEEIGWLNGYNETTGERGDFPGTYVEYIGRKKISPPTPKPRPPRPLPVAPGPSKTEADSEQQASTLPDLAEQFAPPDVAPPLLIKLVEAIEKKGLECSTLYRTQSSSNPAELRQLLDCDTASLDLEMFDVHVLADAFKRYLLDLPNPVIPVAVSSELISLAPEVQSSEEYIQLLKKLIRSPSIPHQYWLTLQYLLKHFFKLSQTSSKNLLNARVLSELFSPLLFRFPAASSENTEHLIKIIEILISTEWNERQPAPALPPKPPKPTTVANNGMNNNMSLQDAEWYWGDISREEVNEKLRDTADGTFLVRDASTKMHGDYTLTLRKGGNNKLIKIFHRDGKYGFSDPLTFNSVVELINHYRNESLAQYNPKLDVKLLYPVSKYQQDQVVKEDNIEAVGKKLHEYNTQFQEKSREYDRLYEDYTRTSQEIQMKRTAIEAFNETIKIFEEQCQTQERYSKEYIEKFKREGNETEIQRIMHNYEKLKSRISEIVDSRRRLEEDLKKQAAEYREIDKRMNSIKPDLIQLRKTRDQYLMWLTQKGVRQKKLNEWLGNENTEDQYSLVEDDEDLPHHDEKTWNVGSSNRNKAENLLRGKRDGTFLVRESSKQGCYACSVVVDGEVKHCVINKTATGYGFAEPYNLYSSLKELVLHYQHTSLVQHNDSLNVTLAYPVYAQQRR
Description: (§1) Insect cells were infected with p85α/p110 complex, (see FIG. 17, A, lanes 1-6) or p110 alone, (see FIG. 17, B, lanes 7-12). The immunoprecipitates were washed twice with PI3-kinase buffer (20 mM Tris-HCl, pH 7.5, 100 mM NaCl, 0.5 mM EDTA). The samples were untreated or treated with 0.3 mM 5,5'-Dithio-bis [2-nitrobenzoic acid] (Nbs2) for 15 minutes at 22° C. Excess reagent was removed by washing the complexes three times with PI3-kinase buffer and the immunoprecipitate was then incubated for 15 minutes at 22° C. with increasing concentrations of dithiothreitol (DTT). A control sample was incubated with DTT alone at a final concentration of 300 mM. The remaining DTT was removed by washing with lysis buffer and the immunoprecipitates were subjected to PI3-kinase assays or to in vitro protein kinase assays described below.
(§2) The experiment was carried out and the experimental results set forth in FIG. 17, A. In vitro PI3-kinase assays were performed on anti-p110 immunoprecipitates of these cells that had been treated as follows: untreated (see FIG. 17, A, lane 1 and 7); 300 mM DTT (lanes 2 and 8); treated with 0.3 mM Nbs2 (lanes 3 and 9); immunoprecipitates pretreated with 0.3 mM Nbs2 incubated with 3 mM DTT (lanes 4 and 10), 30 mM DTT (lanes 5 and 11); 300 mM DTT (lanes 6 and 12).

[4] = biological target: T2, PI3-kinase p110 subunit alone (wild type, recombinant, expressed in Sf9 cells) (Bos taurus, UniProt P32871); experiment: in vitro PI3-kinase assay on anti-p110 immunoprecipitates, p110 alone; assay type: biochemical, bovine
T2 construct: made in house; host or cells: Sf9 insect cells (baculovirus)
T2 sequence (P32871 whole entry): as the sequence (P32871 whole entry) above
Description: as §1, §2

[5] = biological target: T3, PI3-kinase p85α/p110 complex (wild type p110, recombinant, expressed in Sf9 cells), protein-serine kinase activity (Bos taurus, UniProt P32871); experiment: in vitro protein-serine kinase assay (phosphorylation of p85α) on anti-p110 immunoprecipitates of p85α/p110; assay type: biochemical, bovine; conditions: DTT alone, final concentration 300 mM; FIG. 17 B lane 2
T3 construct: made in house; host or cells: Sf9 insect cells (baculovirus co-infection)
T3 sequence (P32871 whole entry): as above
T3 sequence (P23727 whole entry partner): as the sequence (P23727 whole entry partner) above
Description: Anti-p110 immunoprecipitates of p85α/p110 were used to study the kinetics of phosphorylation. The Km (ATP) for the phosphorylation of p85α was measured as approximately 4 μM. The stoichiometry of phosphorylation of p85α was then measured in the presence of excess ATP (50 μM). Approximately 0.9 mol of phosphate was incorporated into one mol of p85α protein.
A further experiment to determine in vitro kinase activity with treatment of Nbs2 and DTT was also conducted. Lysates of Sf9 cells that had been coinfected with p85α/p110 baculoviruses were also treated as follows: the lysates were immunoprecipitated with anti-p110 antibodies and treated as follows: untreated (see FIG. 17, B, lane 1); 300 mM DTT (lane 2); 0.3 mM Nbs2 (lane 3); pretreated with 0.3 mM Nbs2 and then incubated with 3 mM DTT, 30 mM DTT, 300 mM DTT (lanes 4, 5, 6 respectively). Samples were then subjected to in vitro kinase assays and analysis by SDS-PAGE was conducted. Phosphorylated proteins were visualized by autoradiography.
The p110 protein was immunoprecipitated from insect cells, and equal amounts of each GST fusion protein or the GST protein alone, were mixed with p110 and the proteins were allowed to phosphorylate in vitro. […] Phosphorylated proteins were analyzed by SDS-PAGE and autoradiography.

[6] = biological target: p110 subunit of PI3-kinase (bovine, wild type, recombinant) (bovine, UniProt P32871); experiment: GST fusion on glutathione-sepharose, p110 Sf9 lysate, bound PI3-kinase activity
Description: GST fusion proteins of the various subdomains of p85α were constructed and immobilized on glutathione-sepharose beads, See FIG. 2, A. These proteins were used for affinity analysis with cell lysates prepared from Sf9 cells infected with a recombinant baculovirus expressing p110. The complexes were washed and subjected to PI3-kinase activity. GST alone, and GST p85α bound to glutathione-sepharose beads incubated with wild-type lysate were used as controls.

[7] = biological target: p85α subunit of PI3-kinase (bovine, full length, recombinant) (bovine, UniProt P23727); experiment: GST-p110 fusion pull-down from Sf9 lysate expressing p85α
[8] = biological target: p85β subunit of PI3-kinase (bovine, full length, recombinant) (bovine, UniProt P23726); experiment: GST-p110 fusion pull-down from Sf9 lysate expressing p85β

| Molecule | binding result [7] | binding result [8] | other results |
| --- | --- | --- | --- |
| p110 subunit of PI3-kinase (bovine, wild type, recombinant) (from UniProt P32871) (enzyme) | – | – | stoichiometry of phosphorylation of p85α, in vitro protein kinase assay (mol of phosphate per mol of p85α) [1]: 0.9 |
| GST-85βΔ486-516 (from UniProt P23726) | – | – | percent of the PI3-kinase activity bound as compared to wild type GSTp85β [2]: 65% |
| O=C(O)c1cc(SSc2ccc([N+](=O)[O-])c(C(=O)O)c2)ccc1[N+](=O)[O-] [Nbs2, 5,5'-Dithio-bis [2-nitrobenzoic acid]] | – | – | inhibition at 300 µM ([3]; 0.25 h, 0.3 mM Nbs2, 15 minutes at 22° C, FIG. 17 A lane 3, read-out: loss of PI3-kinase activity): ~95%; inhibition at 300 µM ([4]; 0.25 h, 0.3 mM Nbs2, 15 minutes at 22° C, FIG. 17 A lane 9, read-out: loss of PI3-kinase activity): ~95% |
| GST-85βΔ445-469 (from UniProt P23726) | – | – | percent of the PI3-kinase activity bound as compared to wild type GSTp85β [2]: 65% |
| O[C@H](CS)[C@H](O)CS (racemic) [DTT, dithiothreitol] | – | – | activation of protein serine kinase activity [5]: slight activation; activation of PI3-kinase activity ([3]; DTT alone, final concentration 300 mM, FIG. 17 A lane 2): slight activation; activation of PI3-kinase activity ([4]; DTT alone, final concentration 300 mM, FIG. 17 A lane 8): slight activation |
| GST fusion of the BCR homology region of p85α (amino acids 125-322) (other) PDVAPPLLIKLVEAIEKKGLECSTLYRTQSSSNPAELRQLLDCDTASLDLEMFDVHVLADAFKRYLLDLPNPVIPVAVSSELISLAPEVQSSEEYIQLLKKLIRSPSIPHQYWLTLQYLLKHFFKLSQTSSKNLLNARVLSELFSPLLFRFPAASSENTEHLIKIIEILISTEWNERQPAPALPPKPPKPTTVANNGM | – | – | binding result [6]: no binding |
| MPPRPSSGELWGIHLMPPRILVECLLPNGMIVTLE (other) [GST-p110 fusion protein p110-1.6 (amino acids 1-35)] | no binding | no binding | – |
| GST-p110 fusion protein p110-1.2 (amino acids 1-81) (other) MPPRPSSGELWGIHLMPPRILVECLLPNGMIVTLECLREATLITIKHELFKEARKYPLHQLLQDESSYIFVSVTQEAEREE | no binding | no binding | – |
| GST-p110 fusion protein p110-1.7 (amino acids 37-128) (other) LREATLITIKHELFKEARKYPLHQLLQDESSYIFVSVTQEAEREEFFDETRRLCDLRLFQPFLKVIEPVGNREEKILNREIGFAIGMPVCEF | no binding | no binding | – |
| GST-p110 fusion protein p110-1.4 (amino acids 20-81) (other) ILVECLLPNGMIVTLECLREATLITIKHELFKEARKYPLHQLLQDESSYIFVSVTQEAEREE | no binding | no binding | – |
| GSTp85β(516-724) (other) RILLNSERLKSRIAEIHESRTKLEQELRAQASDNREIDKRMNSLKPDLMQLRKIRDQYLVWLTQKGARQKKINEWLGIKNETEDQYSLMEDEDDLPHHEERTWYVGKINRTQAEEMLSGKRDGTFLIRESSQRGCYACSVVVDGDTKHCVIYRTATGFGFAEPYNLYGSLKELVLHYQHASLVQHNDALTVTLAHPVRAPGPGPPPAAR | – | – | binding result [6]: no binding |
| GSTp85β(486-724) (other) IFEEQGQTQEKCSKEYLERFRREGNEKEMQRILLNSERLKSRIAEIHESRTKLEQELRAQASDNREIDKRMNSLKPDLMQLRKIRDQYLVWLTQKGARQKKINEWLGIKNETEDQYSLMEDEDDLPHHEERTWYVGKINRTQAEEMLSGKRDGTFLIRESSQRGCYACSVVVDGDTKHCVIYRTATGFGFAEPYNLYGSLKELVLHYQHASLVQHNDALTVTLAHPVRAPGPGPPPAAR | – | – | binding result [6]: no binding |
| GST fusion of the SH3 domain of p85α (amino acids 1-86) (other) MSAEGYQYRALYDYKKEREEDIDLHLGDILTVNKGSLVALGFSDGQEAKPEEIGWLNGYNETTGERGDFPGTYVEYIGRKKISPPT | – | – | binding result [6]: no binding |

Now from value to molecule, other results behind:

| binding result [7] | binding result [8] | Molecule | other results |
| --- | --- | --- | --- |
| no binding | no binding | GST-p110 fusion protein p110-6 (amino acids 760-1069) (other) QLGNLRLEECRIMSSAKRPLWLNWENPDIMSELLFQNNEIIFKNGDDLRQDMLTLQIIRIMENIWQNQGLDLRMLPYGCLSIGDCVGLIEVVRNSHTIMQIQCKGGLKGALQFNSHTLHQWLKDKNKGEIYDAAIDLFTRSCAGYCVATFILGIGDRHNSNIMVKDDGQLFHIDFGHFLDHKKKKFGYKRERVPFVLTQDFLIVISKGAQECTKTREFERFQEMCYKAYLAIRQHANLFINLFSMMLGSGMPELQSFDDIAYIRKTLALDKTEQEALEYFMKQMNDAHHGGWTTKMDWIFHTIKQHALN | – |
| no binding | no binding | GST-p110 fusion protein p110-4 (amino acids 601-960) (other) LLDCNYPDPMVRGFAVRCLEKYLTDDKLSQYLIQLVQVLKYEQYLDNLLVRFLLKKALTNQRIGHFFFWHLKSEMHNKTVSQRFGLLLESYCRACGMYLKHLNRQVEAMEKLINLTDILKQEKKDETQKVQMKFLVEQMRRPDFMDALQGFLSPLNPAHQLGNLRLEECRIMSSAKRPLWLNWENPDIMSELLFQNNEIIFKNGDDLRQDMLTLQIIRIMENIWQNQGLDLRMLPYGCLSIGDCVGLIEVVRNSHTIMQIQCKGGLKGALQFNSHTLHQWLKDKNKGEIYDAAIDLFTRSCAGYCVATFILGIGDRHNSNIMVKDDGQLFHIDFGHFLDHKKKKFGYKRERVPFVLTQDF | – |
| no binding | no binding | GST-p110 fusion protein p110-3 (amino acids 577-1068) (other) RDEVAQMYCLVKDWPPIKPEQAMELLDCNYPDPMVRGFAVRCLEKYLTDDKLSQYLIQLVQVLKYEQYLDNLLVRFLLKKALTNQRIGHFFFWHLKSEMHNKTVSQRFGLLLESYCRACGMYLKHLNRQVEAMEKLINLTDILKQEKKDETQKVQMKFLVEQMRRPDFMDALQGFLSPLNPAHQLGNLRLEECRIMSSAKRPLWLNWENPDIMSELLFQNNEIIFKNGDDLRQDMLTLQIIRIMENIWQNQGLDLRMLPYGCLSIGDCVGLIEVVRNSHTIMQIQCKGGLKGALQFNSHTLHQWLKDKNKGEIYDAAIDLFTRSCAGYCVATFILGIGDRHNSNIMVKDDGQLFHIDFGHFLDHKKKKFGYKRERVPFVLTQDFLIVISKGAQECTKTREFERFQEMCYKAYLAIRQHANLFINLFSMMLGSGMPELQSFDDIAYIRKTLALDKTEQEALEYFMKQMNDAHHGGWTTKMDWIFHTIKQHALN | – |
| no binding | no binding | GST-p110 fusion protein p110-5 (amino acids 760-960) (other) QLGNLRLEECRIMSSAKRPLWLNWENPDIMSELLFQNNEIIFKNGDDLRQDMLTLQIIRIMENIWQNQGLDLRMLPYGCLSIGDCVGLIEVVRNSHTIMQIQCKGGLKGALQFNSHTLHQWLKDKNKGEIYDAAIDLFTRSCAGYCVATFILGIGDRHNSNIMVKDDGQLFHIDFGHFLDHKKKKFGYKRERVPFVLTQDF | – |
| no binding | no binding | MPPRPSSGELWGIHLMPPRILVECLLPNGMIVTLECLREATLITIKHEL (other) [GST-p110 fusion protein p110-1.1 (amino acids 1-49)] | – |
